Target: human ACE2 extracellular domain (19-615) (human) (UniProt Q9BYF1)
Assay: SPR

Chain of human ACE2 extracellular domain (19-615) (human) (Q9BYF1 19-615): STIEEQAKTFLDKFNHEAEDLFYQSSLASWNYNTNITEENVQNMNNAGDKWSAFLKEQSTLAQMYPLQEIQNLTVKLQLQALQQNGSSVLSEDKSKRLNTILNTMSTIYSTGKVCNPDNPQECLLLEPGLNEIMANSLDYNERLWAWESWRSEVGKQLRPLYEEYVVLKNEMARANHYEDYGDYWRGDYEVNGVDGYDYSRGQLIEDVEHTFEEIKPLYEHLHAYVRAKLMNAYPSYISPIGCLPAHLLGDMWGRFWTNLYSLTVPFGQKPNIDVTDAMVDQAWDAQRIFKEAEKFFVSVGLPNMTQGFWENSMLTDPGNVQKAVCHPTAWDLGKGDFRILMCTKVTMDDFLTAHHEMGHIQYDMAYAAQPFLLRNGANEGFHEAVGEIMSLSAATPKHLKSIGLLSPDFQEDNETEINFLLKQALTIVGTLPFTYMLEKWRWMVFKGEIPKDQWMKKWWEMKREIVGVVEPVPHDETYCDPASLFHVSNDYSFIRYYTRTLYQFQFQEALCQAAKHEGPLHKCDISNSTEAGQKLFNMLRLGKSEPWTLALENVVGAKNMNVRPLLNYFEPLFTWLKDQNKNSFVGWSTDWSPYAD

Substance: PCoV_GX RBD (331-524) (domain or fragment)
- Kd: 2.7 nM
